Results published in paper PMC6591005 (Immunity, 2019).

Columns and labels:
Conditions in all cases: both partners purified
[1] = target: GII.4.2002 P domain (Human norovirus GII.4 2002 Farmington …, UniProt R4I4P2, strain); assay: crystal structure
[2] = target: T1, GII.4 2006b Virus like particles (Human norovirus GII.4 2006b …, UniProt R4I3T2, strain); assay: ELISA; EIA: plates coated with VLP at 0.25 μg/ml in PBS for 4 h, blocked in 5% dry milk in PBS-0.05% Tween-20; two-fold serial dilutions of mAb at 37°C; anti-human IgG-HRP; less than 0.2 OD at 2 μg/ml scored as negative
T1 construct: copies: 180

[3] = target: T2, GII.4 2002 Virus like particles (Human norovirus GII.4 2002 Farmington …, UniProt R4I4P2, strain); assay: as above
T2 construct: copies: 180

[4] = target: GII.2 Virus like particles (Human norovirus GII.2 (Snow Mountain …, UniProt Q80RD6, strain)); assay: as above
[5] = target: T3, GII.4 2015 Virus like particles (Human norovirus GII.P16-GII.4 Sydney …, strain); assay: as above
T3 construct: copies: 180
T3 chain: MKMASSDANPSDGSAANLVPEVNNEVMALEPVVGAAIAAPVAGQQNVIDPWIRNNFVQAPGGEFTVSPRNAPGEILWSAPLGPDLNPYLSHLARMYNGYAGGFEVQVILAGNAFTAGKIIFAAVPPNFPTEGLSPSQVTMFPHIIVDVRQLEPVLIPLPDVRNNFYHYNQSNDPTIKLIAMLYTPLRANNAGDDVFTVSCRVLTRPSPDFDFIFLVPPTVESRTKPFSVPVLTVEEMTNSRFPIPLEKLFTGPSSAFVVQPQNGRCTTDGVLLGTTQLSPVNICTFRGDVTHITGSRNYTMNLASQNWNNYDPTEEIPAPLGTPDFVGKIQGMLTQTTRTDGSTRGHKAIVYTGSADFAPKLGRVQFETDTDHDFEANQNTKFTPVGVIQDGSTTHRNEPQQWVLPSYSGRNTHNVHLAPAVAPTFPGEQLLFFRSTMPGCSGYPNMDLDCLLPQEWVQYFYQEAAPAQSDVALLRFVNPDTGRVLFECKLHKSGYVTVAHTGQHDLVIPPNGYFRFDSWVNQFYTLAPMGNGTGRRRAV

[6] = target: GII.17 Virus like particles (Human norovirus GII.17, GenBank …, UniProt A0A0E3X5I8, strain); assay: as above
[7] = target: T4, GII.4 1997 Virus like particles (Human norovirus GII.4 1997 (US95_96), …, UniProt R4I4R2, strain); assay: as above
T4 construct: copies: 180

[8] = target: T5, GII.4 2012 Virus like particles (Human norovirus GII.4 Sydney 2012, …, UniProt K4LM89, strain); assay: as above
T5 construct: copies: 180

[9] = target: soluble GII.4 P domain from the 2012 pandemic strain (Human norovirus GII.4 Sydney 2012, …, UniProt K4LM89, strain); assay: co-purification of the complex; Fab of A1227 purified in complex with soluble GII.4 P domains, screened for crystallization
[10] = target: soluble GII.4 P domain from the 2009 pandemic strain (Human norovirus GII.4 2009 New Orleans, …, UniProt D3YBZ4, strain); assay: as above
[11] = target: soluble GII.4 P domain from the 2006 pandemic strain (Human norovirus GII.4 2006, taken as …, UniProt R4I3T2, strain); assay: as above

Measured: binding result

B1: A1431 Fab (Fab, V domains shown)
VH: QVQLVQSGGGLVQPGGSLRLSCAASGFAFSNHGMHWVRQAPGKGLEWLSYISGSTGAIHYANSVKGRFTISRDNARNSLDLQMNSLGDEDTAVYYCARDGPRPDGTGYAGPSNDYWGQGTLVSVSS
VL: EIVLTQSPASLSLSPGERATLSCKASRSISIYLAWYQQKPGQAPRLLIYDASYRAIGIPARFSGSGSGTDFTLTISNLEPEDFAVYYCQHRSSWPALTFGGGTKVEIK
binds: [1]

B2: A1227 (recombinant IgG1) (antibody, V domains shown)
VH: QVQLVQSGGGMVQPGGSLSLSCAASGFTLSNYAMTWVRQAPGKGLEWVSSIGGSGGTTYYADSVKGRFTISRDSSMNTLYLQMSNLRAGDTAVYYCAKDKTRTLRLGYSGMDVWGQGTTVTVSS
VL: DIRLTQSPSSLSASVGDRVTITCRASQSISSYLNWYQQKPGKAPDLLIYGASSLQSGVPSRFSGSGSGTDFTLTISSLQPEDFGNYYCQQSFSTPRTFGQGTKVELK
not listed: [1] | [9] | [10] | [11]
binds: all other assays above

B3: A1227 Fab (Fab, V domains shown)
VH: QVQLVQSGGGMVQPGGSLSLSCAASGFTLSNYAMTWVRQAPGKGLEWVSSIGGSGGTTYYADSVKGRFTISRDSSMNTLYLQMSNLRAGDTAVYYCAKDKTRTLRLGYSGMDVWGQGTTVTVSS
VL: DIRLTQSPSSLSASVGDRVTITCRASQSISSYLNWYQQKPGKAPDLLIYGASSLQSGVPSRFSGSGSGTDFTLTISSLQPEDFGNYYCQQSFSTPRTFGQGTKVELK
notes: also called Fab A1227
binds: [9] | [10] | [11]
